Results from patent publication US20210395381A1 (OSSIANIX, published 2021).
Residue numbers refer to the chain shown, from its start.

B1: Clone 32 (VNAR)
VNAR: ARVDQTPQTITKETGESLTINCVLRDSNCALSSTYWYRKKSGSTNEENISKGGRYVETVNSGSKSFSLRINDLTVEDSGTYRCNVQDMLTPNDGQLWDVYGDGTAVTVNA
notes: VNAR on phage
B2: Clone 8.100 (VNAR)
VNAR: ARVDQTPQTITKETGESLTINCVLRDSNCALPSTYWYRKKSGSTNEESISKGGRYVETVNSGSKSFSLRINDLTVEDSGTYRCKVPHMLSSILRGCNYRKHDVYGDGTAVTVNA
notes: VNAR on phage; Clone 8 framework
B3: Clone 8.102 (VNAR)
VNAR: B2 VNAR with P86I, H87A, M88Q, N97A, Y98G, R99V
notes: as for B2
B4: Clone 8.111 (VNAR)
VNAR: B2 VNAR with P86I, H87A, M88Q, R99D, K100V, H101N
notes: as for B2
B5: Clone 8.116 (VNAR)
VNAR: B2 VNAR with P86I, H87A, M88Q, S90N, S91H, I92Y
notes: as for B2
B6: Clone 8.117 (VNAR)
VNAR: B2 VNAR with P86I, H87A, M88Q, R94A, G95L, N97M
notes: as for B2
B7: Clone 8.114 (VNAR)
VNAR: B2 VNAR with P86I, H87A, M88Q, L89P, R99G, H101L
notes: as for B2
B8: Clone 8.139 (VNAR)
VNAR: B2 VNAR with P86D, H87A, M88H
notes: as for B2
B9: Clone 8.126 (VNAR)
VNAR: B2 VNAR with P86I, H87A, M88Q, L89Q, S90D, S91Q, I92D
notes: as for B2
B10: Clone 8.131 (VNAR)
VNAR: B2 VNAR with P86I, H87A, M88Q, R99L, K100D, H101L
notes: as for B2
B11: Clone 8.121 (VNAR)
VNAR: B2 VNAR with P86I, H87A, M88T, S90G
notes: as for B2
B12: Clone 8.135 (VNAR)
VNAR: B2 VNAR with P86I, H87A, M88Q, S90F, S91P, I92P
notes: as for B2
B13: Clone 8.134 (VNAR)
VNAR: B2 VNAR with P86D, H87L, M88T
notes: as for B2
B14: Clone 8.128 (VNAR)
VNAR: B2 VNAR with P86I, H87A, M88Q, S90I, S91K, I92N
notes: as for B2
B15: Clone 8.109 (VNAR)
VNAR: B2 VNAR with P86I, H87A, M88Q, R99T, K100L, H101Y
notes: as for B2
B16: Clone 8.108 (VNAR)
VNAR: B2 VNAR with P86I, H87A, M88Q, R99K, K100N, H101V
notes: as for B2
B17: Clone 8.101 (VNAR)
VNAR: B2 VNAR with P86I, H87A, M88Q, S90H, S91T, I92H
notes: as for B2
B18: Clone 8.110 (VNAR)
VNAR: B2 VNAR with P86I, H87A, M88Q, S90K, S91W, I92G
notes: as for B2
B19: Clone 8.120 (VNAR)
VNAR: B2 VNAR with P86I, H87A, M88Q, I92Y, L93R, R94P
notes: VNAR on phage; Clone 8 framework; same CDR3 as 8.113
B20: Clone 8.118 (VNAR)
VNAR: B2 VNAR with P86I, H87A, M88Q, I92R, L93A, R94M
notes: as for B2
B21: Clone 8.124 (VNAR)
VNAR: B2 VNAR with P86I, H87A, M88Q, I92V, L93K, R94D
notes: as for B2
B22: Clone 8.119 (VNAR)
VNAR: B2 VNAR with P86I, H87A, M88Q, I92V, L93F, R94I
notes: as for B2
B23: Clone 8.147 (VNAR)
VNAR: B2 VNAR with P86I, H87A, M88Q, N97E, Y98G, R99D
notes: as for B2
B24: Clone 8.104 (VNAR)
VNAR: B2 VNAR with P86I, H87A, M88Q, I92R, L93E, R94L
notes: VNAR on phage; Clone 8 framework; same CDR3 as 8.133
B25: Clone 8.105 (VNAR)
VNAR: B2 VNAR with P86V, H87A, M88L, L89Q, S90E
notes: as for B2
B26: Clone 8.141 (VNAR)
VNAR: B2 VNAR with P86I, H87A, M88K, L89A
notes: as for B2
B27: Clone 8.133 (VNAR)
VNAR: B2 VNAR with P86I, H87A, M88Q, I92R, L93E, R94L
notes: VNAR on phage; Clone 8 framework; same CDR3 as 8.104
B28: Clone 8.144 (VNAR)
VNAR: B2 VNAR with P86I, H87A, M88Q, I92G, L93H
notes: as for B2
B29: Clone 8.143 (VNAR)
VNAR: B2 VNAR with P86I, H87A, M88Q, S90H, S91C, I92M
notes: as for B2
B30: Clone 8.103 (VNAR)
VNAR: B2 VNAR with P86I, H87A, M88Q, N97K, Y98Q, R99F, K100E, H101Y
notes: as for B2
B31: Clone 8.136 (VNAR)
VNAR: B2 VNAR with P86I, H87A, M88Q, I92A, L93G, R94I
notes: as for B2
B32: Clone 8.129 (VNAR)
VNAR: B2 VNAR with P86I, H87A, M88Q, Y98Q, R99P
notes: as for B2
B33: Clone 8.142 (VNAR)
VNAR: B2 VNAR with P86I, H87A, M88Q, S90H, S91A, I92N
notes: as for B2
B34: Clone 8.125 (VNAR)
VNAR: B2 VNAR with P86I, H87A, M88Q, I92Y, L93E, R94T
notes: as for B2
B35: Clone 8.138 (VNAR)
VNAR: B2 VNAR with P86I, H87A, M88Q, I92L, L93S, R94F
notes: as for B2
B36: Clone 8.107 (VNAR)
VNAR: B2 VNAR with P86I, H87A, M88Q, R94F, R99F, H101N
notes: as for B2
B37: Clone 8.132 (VNAR)
VNAR: B2 VNAR with P86I, H87A, M88Q, R99M, K100H, H101P
notes: as for B2
B38: Clone 8.115 (VNAR)
VNAR: B2 VNAR with P86I, H87A, M88L, L89H, S90R
notes: as for B2
B39: Clone 8.148 (VNAR)
VNAR: B2 VNAR with P86I, H87A, M88Q, R99E, K100H
notes: as for B2
B40: Clone 8.123 (VNAR)
VNAR: B2 VNAR with P86I, H87A, M88Q, L93M, R99I, K100M, H101R
notes: as for B2
B41: Clone 8.127 (VNAR)
VNAR: B2 VNAR with P86I, H87A, M88K, L89P, S90N
notes: as for B2
B42: Clone 8.140 (VNAR)
VNAR: B2 VNAR with P86I, H87A, M88I, L89T, S90L
notes: as for B2
B43: Clone 8.122 (VNAR)
VNAR: B2 VNAR with P86I, H87A, M88Q, K100A, H101S
notes: as for B2
B44: Clone 8.146 (VNAR)
VNAR: B2 VNAR with P86I, H87A, M88Q, N97E, Y98A
notes: as for B2
B45: Clone 8.112 (VNAR)
VNAR: B2 VNAR with P86I, H87A, M88Q, I92V, L93Y, R94K
notes: as for B2
B46: Clone 8.106 (VNAR)
VNAR: B2 VNAR with P86V, H87A, M88Q, I92H, L93Y, R94D
notes: as for B2
B47: Clone 8.145 (VNAR)
VNAR: B2 VNAR with P86I, H87A, M88Q, R94Q, G95P, N97Y
notes: as for B2
B48: Clone 8.113 (VNAR)
VNAR: B2 VNAR with P86I, H87A, M88Q, I92Y, L93R, R94P
notes: VNAR on phage; Clone 8 framework; same CDR3 as 8.120
B49: Clone 8.130 (VNAR)
VNAR: B2 VNAR with P86I, H87A, M88Q, R99A, K100H, H101L
notes: as for B2

How the values were obtained:
Experiment in all cases: phage ELISA
recombinant mouse TfR-1 [1] = target: T1, recombinant mouse TfR-1 (mouse, UniProt Q62351 89-763)
T1 construct: Bought recombinant protein; also called mTfR1
Method: After the third round of selection, instead of pooling bacterial colonies, individual phagemid clones were grown in 1 ml of 2TY medium containing glucose and ampicillin in 96-well blocks and used to rescue the phages. After an overnight culturing, bacteria were spun down and an aliquot of the phage supernatant was sent for Sanger sequencing (Genewiz); VNAR CDR3 sequences were identified using BioEdit (a sequence alignment editor). Another aliquot was blocked with 2.5% milk for phage ELISAs. High-binding ELISA plates (Greiner) were coated with 1 μg/ml of recombinant human or mouse TfR-1. The plates were then blocked with 2.5% milk in PBST. Blocked phages were added to the blocked plates and the VNAR-phage clones binding to the antigens were detected with HRP-labelled anti-M13 coat protein antibodies (Sino Biological), and chromogenic TMB substrate (KLM)
T1 sequence (Q62351 89-763 limits assumed): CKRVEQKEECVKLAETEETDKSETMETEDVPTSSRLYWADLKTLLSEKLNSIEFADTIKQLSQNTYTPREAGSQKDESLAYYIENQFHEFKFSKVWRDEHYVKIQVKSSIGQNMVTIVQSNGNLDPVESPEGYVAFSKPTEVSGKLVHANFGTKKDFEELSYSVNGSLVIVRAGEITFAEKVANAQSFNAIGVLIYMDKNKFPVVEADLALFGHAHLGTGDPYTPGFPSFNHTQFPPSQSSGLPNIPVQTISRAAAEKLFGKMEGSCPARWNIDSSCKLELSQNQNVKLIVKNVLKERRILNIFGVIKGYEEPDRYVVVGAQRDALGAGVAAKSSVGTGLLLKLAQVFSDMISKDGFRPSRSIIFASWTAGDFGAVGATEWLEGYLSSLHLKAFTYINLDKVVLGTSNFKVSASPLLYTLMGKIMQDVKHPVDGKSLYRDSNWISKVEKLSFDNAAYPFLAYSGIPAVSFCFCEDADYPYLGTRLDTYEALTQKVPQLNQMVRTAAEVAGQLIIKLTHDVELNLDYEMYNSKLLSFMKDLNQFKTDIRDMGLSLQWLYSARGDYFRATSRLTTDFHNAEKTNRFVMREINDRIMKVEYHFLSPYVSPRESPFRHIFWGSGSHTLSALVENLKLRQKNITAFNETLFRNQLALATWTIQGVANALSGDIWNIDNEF

recombinant mouse TfR-1 [2] = target: T2, recombinant mouse TfR-1 (mouse, UniProt Q62351 89-763)
T2 construct: Recombinant protein coated at 1 ug/ml in the phage ELISA; also called mTfR1; mouse transferrin receptor-1
T2 sequence (Q62351 89-763 limits assumed): as above

recombinant human TfR-1 = target: T3, recombinant human TfR-1 (human, UniProt P02786 89-760)
T3 construct: Recombinant protein coated at 1 ug/ml in the phage ELISA; also called hTfR1; human transferrin receptor-1
T3 sequence (P02786 89-760 limits assumed): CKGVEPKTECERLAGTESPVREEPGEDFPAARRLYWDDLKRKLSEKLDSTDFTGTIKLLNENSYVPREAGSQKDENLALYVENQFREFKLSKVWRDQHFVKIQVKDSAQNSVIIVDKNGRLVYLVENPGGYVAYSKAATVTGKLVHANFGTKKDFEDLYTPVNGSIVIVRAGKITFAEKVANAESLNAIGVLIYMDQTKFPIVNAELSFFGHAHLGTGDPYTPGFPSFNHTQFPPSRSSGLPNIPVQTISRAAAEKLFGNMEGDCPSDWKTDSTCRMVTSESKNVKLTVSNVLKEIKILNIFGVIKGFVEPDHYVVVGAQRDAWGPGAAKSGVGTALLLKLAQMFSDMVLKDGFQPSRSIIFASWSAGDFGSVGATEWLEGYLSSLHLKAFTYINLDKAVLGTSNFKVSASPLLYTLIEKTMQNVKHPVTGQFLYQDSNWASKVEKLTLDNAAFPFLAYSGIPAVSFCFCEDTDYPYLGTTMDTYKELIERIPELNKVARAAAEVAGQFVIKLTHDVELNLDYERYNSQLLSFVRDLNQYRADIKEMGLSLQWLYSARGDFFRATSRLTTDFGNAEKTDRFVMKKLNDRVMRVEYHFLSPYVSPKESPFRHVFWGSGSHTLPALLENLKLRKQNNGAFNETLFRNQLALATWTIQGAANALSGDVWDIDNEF

| Binder | binding result (recombinant mouse TfR-1 [1]) | A450 (recombinant mouse TfR-1 [2]) | A450 (recombinant human TfR-1) |
| --- | --- | --- | --- |
| B1 | no binding | – | – |
| B2 | – | 0.053 A450 | 0.048 A450 |
| B3 | – | 0.052 A450 | 0.049 A450 |
| B4 | – | 0.05 A450 | 0.056 A450 |
| B5 | – | 0.049 A450 | 0.066 A450 |
| B6 | – | 0.049 A450 | 0.056 A450 |
| B7 | – | 0.05 A450 | 0.058 A450 |
| B8 | – | 0.045 A450 | 0.05 A450 |
| B9 | – | 0.048 A450 | 0.05 A450 |
| B10 | – | 0.047 A450 | 0.066 A450 |
| B11 | – | 0.049 A450 | 0.049 A450 |
| B12 | – | 0.046 A450 | 0.058 A450 |
| B13 | – | 0.046 A450 | 0.053 A450 |
| B14 | – | 0.047 A450 | 0.051 A450 |
| B15 | – | 0.051 A450 | 0.055 A450 |
| B16 | – | 0.051 A450 | 0.044 A450 |
| B17 | – | 0.052 A450 | 0.048 A450 |
| B18 | – | 0.05 A450 | 0.055 A450 |
| B19 | – | 0.049 A450 | 0.048 A450 |
| B20 | – | 0.049 A450 | 0.051 A450 |
| B21 | – | 0.048 A450 | 0.049 A450 |
| B22 | – | 0.049 A450 | 0.045 A450 |
| B23 | – | 0.045 A450 | 0.052 A450 |
| B24 | – | 0.052 A450 | 0.05 A450 |
| B25 | – | 0.051 A450 | 0.047 A450 |

| Binder | binding result (recombinant mouse TfR-1 [1]) | A450 (recombinant mouse TfR-1 [2]) | A450 (recombinant human TfR-1) |
| --- | --- | --- | --- |
| B26 | – | 0.045 A450 | 0.051 A450 |
| B27 | – | 0.047 A450 | 0.047 A450 |
| B28 | – | 0.045 A450 | 0.05 A450 |
| B29 | – | 0.045 A450 | 0.051 A450 |
| B30 | – | 0.052 A450 | 0.05 A450 |
| B31 | – | 0.046 A450 | 0.055 A450 |
| B32 | – | 0.047 A450 | 0.047 A450 |
| B33 | – | 0.045 A450 | 0.052 A450 |
| B34 | – | 0.048 A450 | 0.05 A450 |
| B35 | – | 0.046 A450 | 0.047 A450 |
| B36 | – | 0.051 A450 | 0.048 A450 |
| B37 | – | 0.047 A450 | 0.053 A450 |
| B38 | – | 0.049 A450 | 0.047 A450 |
| B39 | – | 0.045 A450 | 0.049 A450 |
| B40 | – | 0.048 A450 | 0.048 A450 |
| B41 | – | 0.047 A450 | 0.047 A450 |
| B42 | – | 0.045 A450 | 0.053 A450 |
| B43 | – | 0.048 A450 | 0.047 A450 |
| B44 | – | 0.045 A450 | 0.045 A450 |
| B45 | – | 0.05 A450 | 0.05 A450 |
| B46 | – | 0.051 A450 | 0.054 A450 |
| B47 | – | 0.045 A450 | 0.053 A450 |
| B48 | – | 0.05 A450 | 0.051 A450 |
| B49 | – | 0.047 A450 | 0.049 A450 |
